Read-outs that look alike come from different tables or passages of the source.
What was measured:
[1] = target: T1, synthetic peptide Coa-RI (Coa 506-532) (Staphylococcus aureus strain Newman); assay: isothermal titration calorimetry, peptide into 10 µM Fg-D, one-site model
T1 construct: also called sCoa-RI

Coa-C (Coa 311-636) [2] = target: T2, Coa-C (Coa 311-636) (Staphylococcus aureus strain Newman, UniProt P08515 1-218 = GST)
Efb-A30-67 [3] = target: T3, Efb-A30-67 (Staphylococcus aureus strain Newman, UniProt P08515 1-218 = GST; A6QG59 30-67)
[4] = target: T4, recombinant Efb-O (Efb 68-98) (Staphylococcus aureus strain Newman, UniProt P08515 1-218 = GST)
Efb-N30-105 [5] = target: T5, Efb-N30-105 (Staphylococcus aureus strain Newman, UniProt A6QG59 30-105); assay: ELISA, apparent Kd from half maximum binding
T5 sequence: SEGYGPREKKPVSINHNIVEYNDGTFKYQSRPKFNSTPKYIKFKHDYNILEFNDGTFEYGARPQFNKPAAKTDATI

Efb-A30-67 [6] = target: T3, Efb-A30-67; assay: ELISA, apparent Kd from half maximum binding
[7] = target: T4, recombinant Efb-O (Efb 68-98); assay: ELISA, apparent Kd from half maximum binding
Coa-R (Coa 506-636) [8] = target: T6, Coa-R (Coa 506-636) (Staphylococcus aureus strain Newman); assay: ELISA, antigen coated 200 ng/well, scFv-Fc at 0.5 µg/ml
Coa-C (Coa 311-636) [9] = target: T2, Coa-C (Coa 311-636); assay: apparent Kd from half-maximal binding in ELISA (GraphPad Prism)
Coa-F (Coa 311-505) = Coa-F (Coa 311-505) (Staphylococcus aureus strain Newman, UniProt P08515 1-218 = GST); assay: as above
[10] = target: T7, Coa-R0474-505 (recombinant protein) (Staphylococcus aureus strain Newman); assay: as above
T7 chain: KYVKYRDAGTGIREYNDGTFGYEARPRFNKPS

Efb-N30-105 [11] = target: T5, Efb-N30-105; assay: as above
Efb-A30-67 [12] = target: T3, Efb-A30-67; assay: as above
[13] = target: T4, recombinant Efb-O (Efb 68-98); assay: as above
Efb-N30-105 [14] = target: T5, Efb-N30-105; assay: ELISA, antigen coated 200 ng/well, scFv-Fc at 0.5 µg/ml
Coa-C (Coa 311-636) [15] = target: T2, Coa-C (Coa 311-636); remark: listed apart in the source
Coa-R (Coa 506-636) [16] = target: T6, Coa-R (Coa 506-636)
BSA = target: T8, BSA (bovine, UniProt P02769 25-607); assay: solid-phase binding assay (FIG. 24)
T8 construct: also called bovine serum albumin
T8 sequence (P02769 25-607 limits assumed): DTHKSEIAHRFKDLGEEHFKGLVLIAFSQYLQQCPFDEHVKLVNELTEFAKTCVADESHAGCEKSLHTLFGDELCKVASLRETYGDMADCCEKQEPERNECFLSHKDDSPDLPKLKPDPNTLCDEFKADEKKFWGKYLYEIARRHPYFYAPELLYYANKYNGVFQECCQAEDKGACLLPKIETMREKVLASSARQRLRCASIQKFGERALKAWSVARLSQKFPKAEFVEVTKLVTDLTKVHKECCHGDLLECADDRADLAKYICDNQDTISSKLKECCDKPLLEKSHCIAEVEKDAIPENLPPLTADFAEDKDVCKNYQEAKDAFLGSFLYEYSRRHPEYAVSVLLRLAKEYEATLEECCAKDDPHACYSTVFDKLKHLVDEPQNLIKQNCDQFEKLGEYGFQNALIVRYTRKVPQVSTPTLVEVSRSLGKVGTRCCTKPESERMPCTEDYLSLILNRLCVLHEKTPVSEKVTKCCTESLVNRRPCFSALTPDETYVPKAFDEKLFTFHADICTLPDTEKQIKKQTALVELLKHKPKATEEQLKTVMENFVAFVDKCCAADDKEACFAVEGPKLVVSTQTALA

Efb-N30-105 [17] = target: T5, Efb-N30-105; assay: solid-phase binding assay, titration (FIG. 24)
Efb-A30-67 [18] = target: T3, Efb-A30-67; assay: solid-phase binding assay, titration (FIG. 24)
[19] = target: T4, recombinant Efb-O (Efb 68-98); assay: solid-phase binding assay, titration (FIG. 24)
[20] = target: T7, Coa-R0474-505 (recombinant protein); assay: solid-phase binding assay, titration (FIG. 24); ND in FIG. 27
[21] = target: T1, synthetic peptide Coa-RI (Coa 506-532); assay: peptide inhibition ELISA; appreciable inhibition only above 100 µM peptide
Coa-C (Coa 311-636) [22] = target: T2, Coa-C (Coa 311-636); assay: apparent Kd from half-maximal binding in ELISA (GraphPad Prism); remark: listed apart in the source
Protocol: As well, binding was tested against Coa fragments, namely Coa-C₃₁₁₋₆₃₆, Coa-F₃₁₁₋₅₀₅, Coa-R0₄₇₄₋₅₀₅ and Coa-R₅₀₆₋₆₃₆. Recombinant proteins Efb-N₃₀₋₁₀₅, Efb-A₃₀₋₆₇, Efb-O₆₈₋₉₈, Coa-C₃₁₁₋₆₃₆, Coa-F₃₁₁₋₅₀₅, Coa-R0₄₇₄₋₅₀₅ and Coa-R₅₀₆₋₆₃₆ were diluted in 50 mM sodium carbonate pH 9.6 and immobilized at the concentration of 200 ng/well for 1 hour at room temperature. Immobilized proteins were probed for recognition in a solid-phase binding assay with different quantities of LIG40 antibodies after blocking and washing. After washing, varying concentrations of LIG40 scFv-Fc antibodies were diluted in 2% BSA+1×PBS+0.05% Tween-20 and incubated with the immobilized proteins for 1 hour at room temperature with shaking at 250 rpm. Bound scFv-Fcs were detected using polyclonal α-human IgG HRP-conjugated Ab diluted to 1:10000 in 2% BSA+1×PBS+0.05% Tween-20. HRP-conjugated Ab was incubated for 1 hour at room temperature with shaking at 250 rpm. HRP signal was developed with Sigma FAST-OPD using manufacturers guidelines.

Coa-R (Coa 506-636) [23] = target: T6, Coa-R (Coa 506-636); assay: blocking ELISA: scFv-Fc pre-incubated with 10 nM CoaR, residual binding to coated Fg (blocked ligand: Fg)

B1: Fibrinogen-D fragment (other)
chain 1: VSEDLRSRIEVLKRKVIEKVQHIQLLQKNVRAQLVDMKRLEVDIDIKIRSCRGSCSRALAREVDLKDYEDQQKQLEQVIAKDLLPSR
chain 2: DNENVVNEYSSELEKHQLYIDETVNSNIPTNLRVLRSILENLRSKIQKLESDVSAQMEYCRTPCTVSCNIPVVSGKECEEIIRKGGETSEMYLIQPDSSVKPYRVYCDMNTENGGWTVIQNRQDGSVDFGRKWDPYKQGFGNVATNTDGKNYCGLPGEYWLGNDKISQLTRMGPTELLIEMEDWKGDKVKAHYGGFTVQNEANKYQISVNKYRGTAGNALMDGASQLMGENRTMTIHNGMFFSTYDRDNDGWLTSDPRKQCSKEDGGGWWYNRCHAANPNGRYYWGGQYTWDMAKHGTDDGVVWMNWKGSWYSMRKMSMKIRPFFPQQ
chain 3: KMLEEIMKYEASILTHDSSIRYLQEIYNSNNQKIVNLKEKVAQLEAQCQEPCKDTVQIHDITGKDCQDIANKGAKQSGLYFIKPLKANQQFLVYCEIDGSGNGWTVFQKRLDGSVDFKKNWIQYKEGFGHLSPTGTTEFWLGNEKIHLISTQSAIPYALRVELEDWNGRTSTADYAMFKVGPEADKYRLTYAYFAGGDAGDAFDGFDFGDDPSDKFFTSHNGMQFSTWDNDNDKFEGNCAEQDGSGWWMNKCHAGHLNGVYYQGGTYSKASTPNGYDNGIIWATWKTRWYSMKKTTMKIIPFNRLTIGEGQQHHLGGAK
notes: domain: D fragment; also called Fg-D; D fragment of human Fg
- Kd [1]: 88 nM

B2: FBE5-F11 (scFv, V domains shown)
VH: QVQLQESGGGVVQPGRSLRLSCAASGFTFSSYGMHWVRQAPGKGLEWVAVISYDGSNKYYADSVKGRFTISRDNSKNTLYLQMNSLRAEDTAVYYCAKDLASSGFDYWGQGTLVTVSS
VL: QSVLTQPPSVSAAPGQKVTISCSGSSSNIGNNYVSWYQQLPGTAPKLLIYDNNKRPSGIPDRFSGSKSGTSATLGITGLQTGDEADYYCGTWDSSLSAEVFGGGTKLTVL
- EC50 (read off the curve) (Coa-C (Coa 311-636) [2]): ~0.06 µg/mL
- EC50 (read off the curve) (Efb-A30-67 [3]): ~0.06 µg/mL
- EC50 (read off the curve) [4]: ~0.05 µg/mL
- Kd (Efb-N30-105 [5]): ~0.1 nM
- Kd (Efb-A30-67 [6]): ~0.1 nM
- Kd [7]: ~0.1 nM
- binding result (Coa-R (Coa 506-636) [8]): no binding (tested: 0.5 µg/ml)
- Kd (Coa-C (Coa 311-636) [9]): 0.513 nM
- Kd (Coa-F (Coa 311-505)): 0.244 nM
- Kd [10]: 0.213 nM
- Kd (Efb-N30-105 [11]): 0.219 nM
- Kd (Efb-A30-67 [12]): 0.483 nM
- Kd [13]: 0.396 nM

B3: FBE5-E5 (scFv, V domains shown)
VH: QMQLVQSGGGVVQPGRSLRLSCAASGFTFSSYGMHWVRQAPGKGLEWVAVISYDGSNKYYADSVKGRFTISRDNSKNTLYLQMNSLRGEDTAVYYCAREGGWEPNGLDYWGQGTLVTVSS
VL: QSVLTQPPSVSAAPGQKVTISCSGSSSNIGNNYVSWYQQLPGTAPKLLIYDNNKRPSGIPDRFSGSKSGTSATLGITGLQTGDEADYYCGTWDSSLSAEVFGGGTKLTVL
- binding result (Efb-N30-105 [14]): binds
- binding result (Coa-R (Coa 506-636) [8]): no binding (tested: 0.5 µg/ml)
- Kd (Coa-C (Coa 311-636) [9]): 6.27 nM
- Kd (Coa-F (Coa 311-505)): 9.5 nM
- Kd [10]: 864 nM
- Kd [13]: 434 nM

B4: LIG40-A11 (scFv, V domains shown)
VH: QVQLVESGGVVVQPGGSLRLSCAASGFTFDDYAMHWVRQAPGKGLEWVSLISWDGGSTYYADSVKGRFTISRDNSKNSLYLQMNSLRAEDTALYYCVAARRGMDVWGQGTTVTVSS
VL: KIVLTQSPLSLPVTPGEPASISCRSSQSLLYSNGNNYLDWYLQKPGQSPQLLIYLGSNRAPGVPDRFSGSGSGTDFTLRISRVEAEDVGVYYCMQGRQPPFTFGPGTKVDIK
notes: also called anti-CoaR scFv-Fc antibody
- EC50 (read off the curve) (Coa-C (Coa 311-636) [15]): ~0.02 µg/mL
- EC50 (read off the curve) (Coa-R (Coa 506-636) [16]): ~0.008 µg/mL
- binding result (BSA): no binding
- binding result (Efb-N30-105 [17]): no binding
- binding result (Efb-A30-67 [18]): no binding
- binding result [19]: no binding
- binding result [20]: no binding
- binding result [21]: binds
- Kd (Coa-C (Coa 311-636) [22]): 0.133 nM
- IC50 (read off the curve) (Coa-R (Coa 506-636) [23]): ~3 µg/mL

— patent publication US20200283508A1 (TEXAS A AND M UNIVERSITY SYSTEM, published 2020)
